This passage reports binding and binding signal results from paper PMC3868556.

Data set [1] relates to T1, ComPsub (Neisseria subflava), UPI00280B593C.
T1 sequence: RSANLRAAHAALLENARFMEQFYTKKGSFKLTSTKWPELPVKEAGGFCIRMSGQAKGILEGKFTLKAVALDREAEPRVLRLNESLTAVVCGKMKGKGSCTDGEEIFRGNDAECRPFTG
Put plainly: EMSA. The conditions noted are these: SPR (ProteOn XPR36, NLC chip): 25 mM HEPES pH 7.9, 150 mM NaCl, 2.5 mM MgCl2, 0.05% Tween-20, 25 C, 30 uM ComP; EMSA: native 10% acrylamide, LightShift kit …. (A gel shift assay detects complexes by their altered migration in electrophoresis.)

In data set [2] the test system is ComP (Neisseria meningitidis 8013 (serogroup C clinical isolate)). Put plainly: SPR. The conditions noted are these: SPR (ProteOn XPR36, NLC chip): 25 mM HEPES pH 7.9, 150 mM NaCl, 2.5 mM MgCl2, 0.05% Tween-20, 25 C, 30 uM ComP; EMSA: native 10% acrylamide, LightShift kit ….

As to “GTATGGGCGGCTCGGCGTTTGGTCAGGTGTACAACAATATGAGCGGCGACGCGCCCGATTTGGACGATACAGGCCGTCTGAAAGACTTTTACGGCGTGATTCAACAGCTTGTCGCCGAAGACAAACTCTTGGCGTATCACGACCGCAGCGAC (double strand) [purL fragment with one DUSvar1]”, the binding result in data set [1] is listed as “binds”.

For “TGACCATGCCGTCTGAACAAAC (double strand) [DUS]”, the binding signal in data set [2] is 100 % of DUS Req.
